The target of this assay is T1, OlyA6 mutant E69A (Pleurotus ostreatus, UniProt P83467 1-138, E69A).
T1 sequence: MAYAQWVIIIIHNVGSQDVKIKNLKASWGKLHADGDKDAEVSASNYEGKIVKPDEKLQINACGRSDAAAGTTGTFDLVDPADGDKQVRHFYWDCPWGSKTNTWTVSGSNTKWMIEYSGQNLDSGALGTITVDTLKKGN
As to the kind of experiment: cell-based or functional assay.

B1: Δ48PlyB (pleurotolysin B) (domain or fragment, Pleurotus ostreatus, UniProt Q5W9E8 49-523, looked up)
chain: SQAGDTLNDVIQDPTRRNKLINDNNLLKGIIMGRDGPVPSSRELIVRPDTLRAIINNRATIETTTMEAEFTETLMESNYNSASVKVSAPFITANSEYSESSSFKNTETEKSMYTSSRYLFPQGRIDFTTPDSGFDDVIKLSPQFTSGVQAALAKATGTEKREALQNLFQEYGHVFRTKVHIGGVLSAHTMETFSRSENETEVKQDVKAGLEGAVKGWGGGATAGHGNTQGTITTSQNRKLNVKYIVNGGDYTKIQNTEEWVASTNQSEHWRVIEVTEVTAVADLLPQPIRGQVKDLLKPLLGKWVDVEKVPGLESLPVSVYRPKGAIPAGWFWLGDTADASKALLVKPTLPARSGRNPALTSLHQGSGMTEQPFVDLPQYQYLSTYFGSFAHDTPPGSTLRGLRPDHVLPGRYEMHGDTISTAVYVTRPVDVPFPEDECFDLKSLVRVKLPGSGNPPKPRSALKKSMVLFDSGEK
On to B1, for which the “hazard ratio against buffer, Kaplan-Meier survival of Colorado potato beetle larvae on E69A/PlyB-treated leaf discs” value was found to be 2.76.

(Values after publication PMC9905591, “A single point mutation expands the applicability of ostreolysin A6 in biomedicine” (Scientific Reports, 2023).)
